Measurements as given in article PMC3578147.

Target: Rev-independent (RI) HIV-1 Gag-CFP (HIV-1)
Assay: FRET or BRET

Which FRET efficiency does the source give for “YFP-HIV.NC (HIV-1 NC protein fused to YFP) (domain or fragment)” here?
The FRET efficiency was 7.8%.

With “HIV.Rev-YFP (HIV-1 Rev fused to YFP) (from UniProt P04618 1-116) (natural protein)” as the substance, how does the FRET efficiency read?
Its FRET efficiency is 16.4%.
